A word on the Kd: it is the constant that tells how readily two partners part at equilibrium.

The text below walks through data of article PMC3437054.

Series [1] addresses PCNA (Saccharomyces cerevisiae) (UniProt P15873). The settings on record: cited from earlier work.
Series [2] concerns the target Replication factor C (RFC-A/B/C/D/E);PCNA (wild type) (Saccharomyces cerevisiae;Saccharomyces …, UniProt P38630;P40339;P38629;P40348;P38251;P15873 1-861;1-323;1-340;1-353;1-354;1-258, |). Nature of the series: fluorescence intensity.
Series [3] addresses Replication factor C (RFC-A/B/C/D/E) (Saccharomyces cerevisiae, UniProt P38630;P40339;P38629;P40348;P38251 1-861;1-323;1-340;1-353;1-354). Nature of the series: stopped-flow TAMRA fluorescence.

As to RFC (from UniProt P38630), the Kd in series [1] is 1 nM.

B1: 40/65-nt ptDNA-TAMRA (mixed)
DNA 1: ATTTCCTTCAGCAGATAGGAACCATACTGATTCACATGGC
DNA 2: TAGTTAGAACCTAAGCATATTAGTAGCCATGTGAATCAGTATGGTTCCTATCTGCTGAAGGAAAT
modifications: 3' amino linker on primer
Take B1: the Kd in series [2] was determined as 1 nM. In series [3], the binding result is given as “binds”.
